Results on four variants are retold here after FireProtDB (doi:10.1111/j.1432-1033.1991.tb16033.x).

First the molecules themselves.
B1: Ribonuclease HI, P0A7Y4 (parent)
chain: MLKQVEIFTDGSCLGNPGPGGYGAILRYRGREKTFSAGYTRTTNNRMELMAAIVALEALKEHCEVILSTDSQYVRQGITQWIHNWKKRGWKTADKKPVKNVDLWQRLDAALGQHQIKWEWVKGHAGHPENERCDELARAAAMNPTLEDTGYQVEV

Variants of B1 are the subject of the data set. The settings on record: Escherichia coli (strain K12); pH 5.5; 25 °C; GdnHCl; Fluorescence; Sodium acetate 20 mM; NaCl 0.1 M; reversible: yes; structure 2RN2; whole UniProt chain shown.

Regarding H127A, the “ddG of mutation (higher = less stable)” value amounted to 2.43 kJ/mol, the denaturant m value was 4.98 kcal/mol/M, the “denaturant midpoint (higher = more stable)” value (from here on “denaturant midpoint”) was found to be 1.74 M and the unfolding free energy was found to be 36.3 kJ/mol.

Take H114A: the “ddG of mutation (higher = less stable)” value was 11 kJ/mol, the denaturant m value worked out at 4.23 kcal/mol/M, the “denaturant midpoint” value stood at 1.57 M and the unfolding free energy turned out to be 27.7 kJ/mol.

Consider H124A, for which the “ddG of mutation (higher = less stable)” value was -2.01 kJ/mol, the denaturant m value is 5.36 kcal/mol/M, the “denaturant midpoint” value is 1.82 M and the unfolding free energy was determined as 40.8 kJ/mol.

Regarding H62A, the “ddG of mutation (higher = less stable)” value was -1.59 kJ/mol, the denaturant m value was 5.19 kcal/mol/M, the “denaturant midpoint” value amounted to 1.86 M and the unfolding free energy is 40.3 kJ/mol.
